The test concerns the target HLA-A*02:01 (Homo sapiens, UniProt P04439, D140Y/D185E/D98H/E176V/E277Q/G131W/G231S/I119V/I121R/I166T/I218V/L300P/L318F/N151K/N90K/P208A/P217A/Q86G/Q94H/R138H/R169H/T345S). Description: MHC binding assay (UV-ligand exchange, ELISA of stabilized MHC complexes). As to conditions: MHC class I binding score; binding to HLA-A*02:01 ranged by peptide exchange yield (UV-ligand exchange, ELISA). The method in brief: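 Binding scored as exchange yield, detected via β2m of stabilized complexes in an HRP/TMB ELISA read at 450 nm after streptavidin capture of 100-fold diluted monomers for 1 h at 37 °C. Complexes came from UV irradiation cleaving a photolabile peptide, exchanged for the candidate.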
Background: ELISA stands for enzyme-linked immunosorbent assay.
On to “488 (FLAEDPKVTL; listed as Homo sapiens) [compound 488]”, for which the Peptide exchange result is recorded as “″+++″ (≥50% = +++)”.

Turning to “490 (FLLQHVQEL; listed as Homo sapiens) [compound 490]”, the Peptide exchange result is on record as “″+++″ (≥50% = +++)”.

For the substance “491 (GLNDRSDAV; listed as Homo sapiens) [compound 491]”, the Peptide exchange result was “″++″ (≥20% = ++)”.

As for “492 (SLFDGFADGLGV; listed as Homo sapiens) [compound 492]”, the Peptide exchange result is given as “″+++″ (≥50% = +++)”.

With “493 (GLLGEKTQDLIGV; listed as Homo sapiens) [compound 493]”, the Peptide exchange entry is “″+++″ (≥50% = +++)”.

On to “494 (ALQPEPIKV; listed as Homo sapiens) [compound 494]”, for which the Peptide exchange result was “″++″ (≥20% = ++)”.

Regarding “495 (FIFSEKPVFV; listed as Homo sapiens) [compound 495]”, the Peptide exchange result is “″+++″ (≥50% = +++)”.

Consider “496 (FLVEKQPPQV; listed as Homo sapiens) [compound 496]”, for which the Peptide exchange entry is recorded as “″+++″ (≥50% = +++)”.

With “497 (GLLEKLTAI; listed as Homo sapiens) [compound 497]”, the Peptide exchange result is “″+++″ (≥50% = +++)”.

As for “498 (KLWTGGLDNTV; listed as Homo sapiens) [compound 498]”, the Peptide exchange result was “″+++″ (≥50% = +++)”.

For “500 (SLMEDQVLQL; listed as Homo sapiens) [compound 500]”, the Peptide exchange result is given as “″+++″ (≥50% = +++)”.

With “501 (LLDPNVKSIFV; listed as Homo sapiens) [compound 501]”, the Peptide exchange entry is given as “″+++″ (≥50% = +++)”.

Turning to “502 (RLLAQVPGL; listed as Homo sapiens) [compound 502]”, the Peptide exchange result is given as “″+++″ (≥50% = +++)”.

With “503 (SLNHFTHSV; listed as Homo sapiens) [compound 503]”, the Peptide exchange result was “″+++″ (≥50% = +++)”.

In the case of “504 (GLSDGNPSL; listed as Homo sapiens) [compound 504]”, the Peptide exchange result is listed as “″++″ (≥20% = ++)”.

“505 (SLAPGDVVRQV; listed as Homo sapiens) [compound 505]”: the Peptide exchange result is “″++″ (≥20% = ++)”.

As for “506 (KLLGKVETA; listed as Homo sapiens) [compound 506]”, the Peptide exchange entry is “″+++″ (≥50% = +++)”.

On to “507 (KLIDDQDISISL; listed as Homo sapiens) [compound 507]”, for which the Peptide exchange result is recorded as “″+++″ (≥50% = +++)”.

On to “508 (ILAQEQLVVGV; listed as Homo sapiens) [compound 508]”, for which the Peptide exchange entry is given as “″+++″ (≥50% = +++)”.

For the substance “509 (FLFDTKPLIV; listed as Homo sapiens) [compound 509]”, the Peptide exchange entry was “″+++″ (≥50% = +++)”.

“510 (KLYSVVSQL; listed as Homo sapiens) [compound 510]”: the Peptide exchange result was “″++″ (≥20% = ++)”.

Take “512 (SLSEIVPCL; listed as Homo sapiens) [compound 512]”: the Peptide exchange result is “″+++″ (≥50% = +++)”.

As for “513 (SLWPSPEQL; listed as Homo sapiens) [compound 513]”, the Peptide exchange entry is on record as “″++″ (≥20% = ++)”.

As for “514 (ILVDWLVQV; listed as Homo sapiens) [compound 514]”, the Peptide exchange result was “″+++″ (≥50% = +++)”.

For the substance “515 (LLQELVLFL; listed as Homo sapiens) [compound 515]”, the Peptide exchange result is reported as “″+++″ (≥50% = +++)”.

Take “516 (AVGPASILKEV; listed as Homo sapiens) [compound 516]”: the Peptide exchange entry was “″++″ (≥20% = ++)”.

On to “517 (LLMPIPEGLTL; listed as Homo sapiens) [compound 517]”, for which the Peptide exchange result was “″+++″ (≥50% = +++)”.

Regarding “518 (KLNAEVACV; listed as Homo sapiens) [compound 518]”, the Peptide exchange result was “″+++″ (≥50% = +++)”.

For “519 (GLLHLTLLL; listed as Homo sapiens) [compound 519]”, the Peptide exchange result is recorded as “″+++″ (≥50% = +++)”.

As for “520 (LAVHPSGVAL; listed as Homo sapiens) [compound 520]”, the Peptide exchange result is reported as “″+″ (≥10% = +)”.

For “521 (MLLTKLPTI; listed as Homo sapiens) [compound 521]”, the Peptide exchange entry is “″+++″ (≥50% = +++)”.

As to “522 (TLWYRSPEV; listed as Homo sapiens) [compound 522]”, the Peptide exchange result was “″++″ (≥20% = ++)”.

Turning to “523 (YQIPRTFTL; listed as Homo sapiens) [compound 523]”, the Peptide exchange entry is “″++″ (≥20% = ++)”.

As to “524 (ALIENLTHQI; listed as Homo sapiens) [compound 524]”, the Peptide exchange result is given as “″++″ (≥20% = ++)”.

Turning to “525 (VLLEAGEGLVTI; listed as Homo sapiens) [compound 525]”, the Peptide exchange entry is reported as “″+++″ (≥50% = +++)”.

In the case of “526 (RLAEVGQYEQV; listed as Homo sapiens) [compound 526]”, the Peptide exchange result is recorded as “″++″ (≥20% = ++)”.

Turning to “527 (FLLEPGNLEV; listed as Homo sapiens) [compound 527]”, the Peptide exchange result is “″++++″ (≥75% = ++++)”.

Take “528 (SVAEGRALMSV; listed as Homo sapiens) [compound 528]”: the Peptide exchange result is “″+++″ (≥50% = +++)”.

For “529 (LLADELITV; listed as Homo sapiens) [compound 529]”, the Peptide exchange result is given as “″+++″ (≥50% = +++)”.

As for “530 (VMYADIGGMDI; listed as Homo sapiens) [compound 530]”, the Peptide exchange result is given as “″+++″ (≥50% = +++)”.

Take “531 (YTLPIASSIRL; listed as Homo sapiens) [compound 531]”: the Peptide exchange entry is on record as “″+++″ (≥50% = +++)”.

Regarding “537 (TLAPGEVLRSV; listed as Homo sapiens) [compound 537]”, the Peptide exchange result is given as “″+++″ (≥50% = +++)”.

With “538 (LLLAHIIAL; listed as Homo sapiens) [compound 538]”, the Peptide exchange entry is “″++″ (≥20% = ++)”.

Regarding “539 (ALFDAQAQV; listed as Homo sapiens) [compound 539]”, the Peptide exchange entry is listed as “″+++″ (≥50% = +++)”.

With “541 (SMLEPVPEL; listed as Homo sapiens) [compound 541]”, the Peptide exchange result is given as “″+++″ (≥50% = +++)”.

Consider “542 (RVWDISTVSSV; listed as Homo sapiens) [compound 542]”, for which the Peptide exchange entry was “″+++″ (≥50% = +++)”.

On to “543 (GLLPTPITQQASL; listed as Homo sapiens) [compound 543]”, for which the Peptide exchange entry is recorded as “″+++″ (≥50% = +++)”.

Consider “544 (LLWDVPAPSL; listed as Homo sapiens) [compound 544]”, for which the Peptide exchange entry is given as “″+++″ (≥50% = +++)”.

“545 (LLADLLHNV; listed as Homo sapiens) [compound 545]”: the Peptide exchange result was “″+++″ (≥50% = +++)”.

As for “546 (VMIAGKVAVV; listed as Homo sapiens) [compound 546]”, the Peptide exchange result is “″+++″ (≥50% = +++)”.

Take “547 (TLDITPHTV; listed as Homo sapiens) [compound 547]”: the Peptide exchange result is on record as “″+++″ (≥50% = +++)”.

For the substance “548 (ALWENPESGEL; listed as Homo sapiens) [compound 548]”, the Peptide exchange result is “″++″ (≥20% = ++)”.

On to “549 (AMLENASDIKL; listed as Homo sapiens) [compound 549]”, for which the Peptide exchange entry is reported as “″+++″ (≥50% = +++)”.

The values are drawn from patent US10472401B2, “Peptides and combination of peptides for use in immunotherapy against ovarian cancer and other cancers” (immatics biotechnologies GmbH, priority 2015, dated 2019).
